A word on the Ki: it is the equilibrium dissociation constant of an inhibitor or competing ligand from its target. A higher Ki goes with weaker binding. What is called Kd is the concentration at which binding is half-saturated. The low end stands for a tighter complex, the high end for a looser complex.

Assay [1] addresses T1, rat GALR3 (rat).
T1 chain: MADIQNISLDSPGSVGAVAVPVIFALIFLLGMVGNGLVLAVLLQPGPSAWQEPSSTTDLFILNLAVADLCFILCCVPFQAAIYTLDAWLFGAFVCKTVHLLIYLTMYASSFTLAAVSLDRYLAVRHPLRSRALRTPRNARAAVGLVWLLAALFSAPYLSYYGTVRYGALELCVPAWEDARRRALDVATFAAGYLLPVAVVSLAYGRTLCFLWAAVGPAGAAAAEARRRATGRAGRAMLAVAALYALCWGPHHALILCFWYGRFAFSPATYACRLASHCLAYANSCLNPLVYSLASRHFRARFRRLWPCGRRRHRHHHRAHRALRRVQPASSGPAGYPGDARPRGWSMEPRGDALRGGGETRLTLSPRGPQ
The assay can be described thus: competition.

Assay [2] concerns the target T1, rat GALR3. The assay can be described thus: competition.
The target in assay [3] is T2, human GALR3 (human).
T2 chain: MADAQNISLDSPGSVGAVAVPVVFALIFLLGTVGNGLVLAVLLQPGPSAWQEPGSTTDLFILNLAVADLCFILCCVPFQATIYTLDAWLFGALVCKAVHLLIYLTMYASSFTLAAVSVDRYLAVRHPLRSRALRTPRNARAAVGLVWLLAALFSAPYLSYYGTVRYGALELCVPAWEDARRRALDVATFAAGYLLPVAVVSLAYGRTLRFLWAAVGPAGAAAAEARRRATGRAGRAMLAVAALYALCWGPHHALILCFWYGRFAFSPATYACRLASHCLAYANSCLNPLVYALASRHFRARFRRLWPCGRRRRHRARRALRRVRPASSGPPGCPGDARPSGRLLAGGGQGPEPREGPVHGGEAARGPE
The assay can be described thus: competition.

Assay [4] has as its target T1, rat GALR3. The assay can be described thus: competition, COS-7.
Assay [5] deals with T1, rat GALR3. The assay can be described thus: competition, 293-rGalR3-105.
Assay [6] has as its target T1, rat GALR3. The assay can be described thus: other, 125I-galanin saturation, COS-7 membranes.
Assay [7] deals with T2, human GALR3. The assay can be described thus: other, 125I-galanin saturation, L-hGalR3-228 membranes.

B1: D-Trp2-galanin 1-29 (protein)
chain: KRGWTLNSAGYLLGPHAIDNHRSFHDKYGLAGKRELEPEDEARPGGFDRLQSEDKAIRTIMEFLAFLHLKEAGALGRLPGLPSAASSEDAGQS
modifications: D-Trp at position 2, mature numbering
Regarding B1, the inhibition constant (Ki) in assay [1], in assay [2], in assay [3], in assay [4] and in assay [5] was over 1000 nM in each case.

B2: porcine galanin (protein)
chain: KRGWTLNSAGYLLGPHAIDNHRSFHDKYGLAGKRELEPEDEARPGGFDRLQSEDKAIRTIMEFLAFLHLKEAGALGRLPGLPSAASSEDAGQS
Take B2: the dissociation constant (Kd) came to 0.34 nM in assay [6] and 2.57 nM in assay [7].

These data come from US7022489 (dated 2006).
